Key:
[1] = biological target: biotinylated human IgM (human); test: SPR; BIAcore T100, 37 °C, HBS-EP; biotinylated human IgM on streptavidin chip (biotinylated human IgG as reference), gel-filtered monomeric DBL domains injected at 20 μl/min for 2 min to equilibrium; 1:1 Langmuir isotherm
[2] = biological target: SPAM fragment of DBLMSP2 (3D7) (Plasmodium falciparum (3D7 strain)); test: SEC; size exclusion chromatography of the purified Cd4-tagged proteins; markers thyroglobulin, ferritin, aldolase, conalbumin, carbonic anhydrase
[3] = biological target: recombinant full-length DBLMSP (3D7), monobiotinylated (Plasmodium falciparum (3D7 strain)); test: SPR; BIAcore T100, 37 °C, HBS-EP; biotinylated full-length DBLMSP or DBLMSP2 on streptavidin chip, purified human IgM injected 30 min at 10 μl/min to equilibrium; equilibrium fit to a simple Langmuir isotherm; values reflect overall binding avidity
[4] = biological target: recombinant full-length DBLMSP2 (3D7), monobiotinylated (Plasmodium falciparum (3D7 strain)); test: as above

With “DBL domain of DBLMSP2 (3D7) (domain or fragment)” the Kd [1] was 0.6 µM.
For “DBL domain of DBLMSP (3D7) (domain or fragment)”, the Kd [1] was 0.06 µM.
“SPAM fragment of DBLMSP2 (3D7) (domain or fragment)” was tested, and the stoichiometry N [2] was > 4.
human IgM (natural protein) was tested, and the Kd [3] was 0.0003 µM and the Kd [4] was 0.0011 µM.

— article PMC4933183
